Laboratory results taken from patent publication US20180230212A1.

Key:
[1] = molecular target: human CD98hc as expressed on normal blood cells, HUVEC cells and untreated U937 / THP-1 cells (human CD98hc having an N-glycan) (human) (UniProt P08195); assay: FACS on untreated U937 cells, MEM-108 at 2.5 µg/ml, PE anti-mouse IgG
[2] = molecular target: human CD98hc as expressed on normal blood cells, HUVEC cells and untreated U937 / THP-1 cells (human CD98hc having an N-glycan) (human) (UniProt P08195); assay: FACS on untreated THP-1 cells, MEM-108 at 2.5 µg/ml, PE anti-mouse IgG
[3] = molecular target: human CD98hc with incomplete glycosylation (cells treated with tunicamycin, thapsigargin or bortezomib) (human) (UniProt P08195); assay: FACS on tunicamycin-treated U937 cells, MEM-108 at 2.5 µg/ml, PE anti-mouse IgG
[4] = molecular target: human CD98hc with incomplete glycosylation (cells treated with tunicamycin, thapsigargin or bortezomib) (human) (UniProt P08195); assay: FACS on tunicamycin-treated THP-1 cells, MEM-108 at 2.5 µg/ml, PE anti-mouse IgG

MFI (corrected value obtained by dividing with an isotype control) (MFI / MFI of isotype control) [1]: 11.8
MFI (corrected value obtained by dividing with an isotype control) (MFI / MFI of isotype control) [2]: 29.4
MFI (corrected value obtained by dividing with an isotype control) (MFI / MFI of isotype control) [3]: 8.3
MFI (corrected value obtained by dividing with an isotype control) (MFI / MFI of isotype control) [4]: 29.1
Substance: MEM-108 antibody (anti-human CD98 antibody, Biolegend)
